Results on one protein are retold here after publication doi:10.1101/2022.08.13.503841 (bioRxiv, 2022).

The series concerns the molecule itself. Briefly: cryo-EM structure.

B1: Chikungunya virus non-structural protein 1 (nsP1) (enzyme)
chain: MDPVYVDIDADSAFLKALQRAYPMFEVEPRQVTPNDHANARAFSHLAIKLIEQEIDPDSTILDIGSAPARRMMSDRKYHCVCPMRSAEDPERLANYARKLASAAGKVLDRNISGKIGDLQAVMAVPDTETPTFCLHTDVSCRQRADVAIYQDVYAVHAPTSLYHQAIKGVRLAYWVGFDTTPFMYNAMAGAYPSYSTNWADEQVLKAKNIGLCSTDLTEGRRGKLSIMRGKKLEPCDRVLFSVGSTLYPESRKLLKSWHLPSVFHLKGKLSFTCRCDTVVSCEGYVVKRITMSPGLYGKTTGYAVTHHADGFLMCKTTDTVDGERVSFSVCTYVPATICDQMTGILATEVTPEDAQKLLVGLNQRIVVNGRTQRNTNTMKNYMIPVVAQAFSKWAKECRKDMEDEKLLGVRERTLTCCCLWAFKKQKTHTVYKRPDTQSIQKVQAEFDSFVVPSLWSSGLSIPLRTRIKWLLSKVPKTDLTPYSGDAQEARDAEKEAEEEREAELTLEALPPLQAAQEDVQVEIDVEQLEDRAGA
Regarding B1, the stoichiometry N (as a rule, the number of molecules, sites or subunits per partner or assembly) was determined as 12.
